Measured values as given in patent US11618906B2, “Hydroxylation techniques” (HYPHA DISCOVERY LTD., priority 2018, dated 2023).
Residue numbers refer to the chain shown, from its start. In names and notes the source's numbering stands.

B1: aluC09M31: cytochrome P450 aluC09 mutant T291S; amino acid sequence SEQ ID NO: 36 (protein, listed as Amycolatopsis lurida)
chain: MTDVEETTATLPLARKCPFSPPPEYERLRRESPVSRVGLPSGQTAWALTRLEDIREMLSSPHFSSDRQSPSFPLMVARQIRREDKPFRPSLIAMDPPEHSRARRDVVGEFTVKRMKALQPRIQQIVDEHLDALLAGPKPADLVQALSLPVPSLVICELLGVPYSDHEFFQSCSSRMLSREVTAEERMTAFEQLENYLDELVTKKEANATEDDLLGRQILKQRETGEADHGELVGLAFLLLIAGHETTANMISLGTVTLLENPDQLAKIKADPGKTLAAIEELLRVFTIAESATSRFATADVEIGGTLIRAGEGVVGLSNAGNHDPDGFENPDTFDIERGARHHVAFGFGVHQCLGQNLARLELQIVFDTLFRRVPGLRIAVPVDELPFKHDSTIYGLHALPVTW
B2: aluC09M36: cytochrome P450 aluC09 mutant T291F; amino acid sequence SEQ ID NO: 56 (protein, listed as Amycolatopsis lurida)
chain: B1 chain with S291F
B3: aluC09M40: cytochrome P450 aluC09 mutant T291R; amino acid sequence SEQ ID NO: 72 (protein, listed as Amycolatopsis lurida)
chain: B1 chain with S291R
B4: aluC09M37: cytochrome P450 aluC09 mutant T291W; amino acid sequence SEQ ID NO: 60 (protein, listed as Amycolatopsis lurida)
chain: B1 chain with S291W

Experiment: Hydroxylation of diclofenac catalysed by cytochrome P450 aluC09 and mutants (UPLC-PDA-MS)
Type: biochemical
Settings: % by UV peak area at 275 nm; 0.125 mg/ml substrate, 27° C., 16-20 hours
How it was run: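 Conversion of diclofenac (0.125 mg/ml) to hydroxy metabolites measured by UPLC with UV and MS detection, identities confirmed by authentic samples. Reactions used P450 aluC09 variants with ferredoxin aluF03, reductase SCF15A and an NADP/G6P/G6PDH recycling system, pH 7.4 phosphate, 27° C, 16-20 hours.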

Molecule	4′,5-dihydroxy-diclofenac 1.38 mins	4′-hydroxy-diclofenac (1) 1.62 mins	5-hydroxy-diclofenac (2) 1.58 mins	Diclofenac (Substrate) 1.81 mins
B1	3.3%	43.3%	22.8%	32.3%
B2	3.6%	42.8%	23.0%	33.0%
B3	2.2%	35.7%	14.3%	48.8%
B4	1.9%	31.4%	15.9%	51.8%

Same assay, conditions: diclofenac; ratio of UV peak areas at 275nm

Molecule	Hydroxylated Ratio hydroxy 1:hydroxy 2
B1	1.9
B2	1.9
B3	2.5
B4	2.0

Experiment: Hydroxylation of flufenamic acid catalysed by cytochrome P450 aluC09 and mutants
Type: biochemical
Settings: % by UV peak area at 275 nm; 0.125 mg/ml substrate, 27° C., 16-20 hours
How it was run: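 Conversion measured by UPLC-MS (UV and MS) after acetonitrile extraction, following 16-20 h shaking at 27° C. Reaction: 0.125 mg/ml substrate, P450 mutant plus ferredoxin aluF03 and reductase SCF15A, 5 mM G6P, 1 mM NADP, 2 U/ml G6PDH, pH 7.4 phosphate with 5 mM MgCl2.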

Molecule	Flufenamic Acid (Substrate) 1.93 mins	Hydroxy-Flufenamic Acid (1) 1.69 mins	Hydroxy-Flufenamic Acid (2) 1.65 mins
B1	89.1%	6.8%	4.1%
B2	89.8%	7.7%	2.6%
B3	94.8%	4.4%	0.9%
B4	91.3%	6.4%	2.2%

Same assay, conditions: flufenamic acid; ratio of UV peak areas at 275 nm

Molecule	Hydroxylated Ratio 1:2
B1	1.7
B2	3.0
B3	4.9
B4	2.9

Experiment: Hydroxylation of aceclofenac catalysed by cytochrome P450 aluC09 and mutants
Type: biochemical
Settings: % by UV peak area at 275 nm; 0.125 mg/ml substrate, 27° C., 16-20 hours
How it was run: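 Conversion was assessed by UPLC-MS (UV and MS detection) after acetonitrile extraction of reactions run 16-20 h at 27° C, shaking. Reactions contained substrate at 0.125 mg/ml, P450 mutant plus ferredoxin and reductase partners, 1 mM NADP with glucose-6-phosphate regeneration, in phosphate buffer pH 7.4.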

Molecule	Aceclofenac (Substrate) (1.80 mins)	Dihydroxy-Aceclofenac (1.42 mins)	Hydroxy-Aceclofenac (1) (1.64 min)	Hydroxy-Aceclofenac (2) (1.60 min)
B1	12.3%	43.1%	8.5%	36.1%
B2	9.3%	44.6%	7.2%	38.9%
B3	46.3%	12.7%	19.7%	21.4%
B4	4.2%	56.0%	4.5%	35.3%

Same assay, conditions: aceclofenac; ratio of UV peak areas at 275 nm

Molecule	Hydroxylated Ratio 2:1
B1	4.2
B2	5.4
B3	1.1
B4	7.8

Experiment: Hydroxylation / de-N-ethylation of napropamide catalysed by cytochrome P450 aluC09 and mutants
Type: biochemical
Settings: % by UV peak area at 275 nm; 0.125 mg/ml substrate, 27° C., 16-20 hours
How it was run: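 Conversion of napropamide (0.125 mg/ml) to hydroxylated and de-ethylated metabolites was measured by UPLC-MS after acetonitrile extraction. Reactions ran 16-20 h at 27° C in pH 7.4 potassium phosphate (50 mM) with 5 mM MgCl2, 1 mM NADP, 5 mM G6P and 2 UN/ml G6PDH. Enzymes were lyophilised P450 aluC09 variants, ferredoxin aluF03 and ferredoxin reductase SCF15A.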

Molecule	Desethyl Napropamide (1.62 min)	Desethyl-hydroxy-Napropamide (1.41 min)	Hydroxy-Napropamide (1) (1.53 min)	Hydroxy-Napropamide (2), (1.52 min)	M-2Da (unidentified) (1.89 min)	Napropamide (substrate)
B1	44.8%	4.6%	2.4%	5.1%	7.0%	37.9%
B2	40.5%	3.1%	1.2%	3.5%	6.3%	46.8%
B3	12.9%	0.4%	2.3%	1.8%	2.4%	80.6%
B4	40.1%	3.3%	1.6%	3.3%	6.0%	47.3%

Same assay, conditions: napropamide; ratio of UV peak areas

Molecule	Hydroxylated Ratio 2:1
B1	2.1
B2	3.0
B3	0.8
B4	2.1

Experiment: O-demethylation of indomethacin catalysed by cytochrome P450 aluC09 and mutants
Type: biochemical
Settings: % by UV peak area at 275 nm; 0.125 mg/ml substrate, 27° C., 16-20 hours
How it was run: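 Conversion was quantified by UPLC-UV/MS after acetonitrile extraction of 16-20 h, 27° C. shaken reactions. These contained 0.125 mg/ml substrate, mutant P450 with partner ferredoxin and reductase, 1 mM NADP plus 5 mM G6P and 2 U/ml G6PDH, in pH 7.4 phosphate with 5 mM MgCl2.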

Molecule	Indomethacin (1.74 mins)	O-demethyl-Indomethacin (1.52 mins)
B1	84.8%	15.2%
B2	80.3%	19.7%
B3	88.8%	11.2%
B4	89.0%	11.0%

Experiment: Metabolism of ritonavir by P450 aluC09 and mutants
Type: biochemical
Settings: percent of substrate being converted; 0.125 mg/ml, 27° C., 16-20 hours; [CYP] per enzyme as in Table 8
How it was run: (§1)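 Read-out was substrate conversion by UPLC-MS after acetonitrile extraction. Reactions had contained lyophilised aluC09 mutant enzymes with ferredoxin and ferredoxin reductase partners, substrate at 0.125 mg/ml, and a glucose-6-phosphate dehydrogenase NADPH-regenerating system, shaken 16-20 hours at 27° C.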

Molecule	% conversions (avg) Ritonavir
B1	73.5%
B2	73.8%
B3	53.4%
B4	64.1%

Experiment: Metabolism of celecoxib by P450 aluC09 and mutants
Type: biochemical
Settings: percent of substrate being converted; 0.125 mg/ml, 27° C., 16-20 hours; [CYP] per enzyme as in Table 8
How it was run: as §1

Molecule	% conversions (avg) Celecoxib
B1	3.6%
B2	5.7%
B3	0%
B4	7.2%

Experiment: Metabolism of epothilone B by P450 aluC09 and mutants
Type: biochemical
Settings: percent of substrate being converted; 0.125 mg/ml, 27° C., 16-20 hours; [CYP] per enzyme as in Table 8
How it was run: as §1

Molecule	% conversions (avg) Epothilone B
B1	35.3%
B2	62.3%
B3	2.4%
B4	50.2%

Experiment: Metabolism of buparvaquone by P450 aluC09 and mutants
Type: biochemical
Settings: percent of substrate being converted; 0.125 mg/ml, 27° C., 16-20 hours; [CYP] per enzyme as in Table 8
How it was run: as §1

Molecule	% conversions (avg) Buparvaquone
B1	11.3%
B2	9.5%
B3	0%
B4	10.5%

Experiment: Metabolism of BIRB796 by P450 aluC09 and mutants
Type: biochemical
Settings: percent of substrate being converted; 0.125 mg/ml, 27° C., 16-20 hours; [CYP] per enzyme as in Table 8
How it was run: as §1

Molecule	% conversions (avg) BIRB796
B1	15.3%
B2	20%
B3	0%
B4	10%

Experiment: Metabolism of bosentan by P450 aluC09 and mutants
Type: biochemical
Settings: percent of substrate being converted; 0.125 mg/ml, 27° C., 16-20 hours; [CYP] per enzyme as in Table 8
How it was run: as §1

Molecule	% conversions (avg) Bosentan
B1	99%
B2	99.5%
B3	76.5%
B4	98.6%

Experiment: Metabolism of valsartan by P450 aluC09 and mutants
Type: biochemical
Settings: percent of substrate being converted; 0.125 mg/ml, 27° C., 16-20 hours; [CYP] per enzyme as in Table 8
How it was run: as §1

Molecule	% conversions (avg) Valsartan
B1	33.9%
B2	45.7%
B3	7.3%
B4	41%

Experiment: Metabolism of ruxolitinib by P450 aluC09 and mutants
Type: biochemical
Settings: percent of substrate being converted; 0.125 mg/ml, 27° C., 16-20 hours; [CYP] per enzyme as in Table 8
How it was run: as §1

Molecule	% conversions (avg) Ruxolitinib
B1	41.7%
B2	42.1%
B3	5.2%
B4	34.2%

Experiment: Metabolism of 4-pyrrolidylacetophenone by P450 aluC09 and mutants
Type: biochemical
Settings: percent of substrate being converted; 0.125 mg/ml, 27° C., 16-20 hours; [CYP] per enzyme as in Table 8
How it was run: as §1

Molecule	% conversions (avg) 4-pyrrolidylacetophenone
B1	4.9%
B2	6.8%
B3	1.7%
B4	7.3%

Experiment: Metabolism of tivantinib by P450 aluC09 and mutants
Type: biochemical
Settings: percent of substrate being converted; 0.125 mg/ml, 27° C., 16-20 hours; [CYP] per enzyme as in Table 8
How it was run: as §1

Molecule	% conversions (avg) Tivantinib
B1	56%
B2	30.4%
B3	5.3%
B4	31%

Experiment: Metabolism of tofacitinib by P450 aluC09 and mutants
Type: biochemical
Settings: percent of substrate being converted; 0.125 mg/ml, 27° C., 16-20 hours; [CYP] per enzyme as in Table 8
How it was run: as §1

Molecule	% conversions (avg) Tofacitinib
B1	1.5%
B2	2.4%
B3	0.4%
B4	0.9%
